T1: VEGFR-3-Fc (UniProt P35916 25-328)
T1 construct: domain: first three Ig domains; conditioned supernatant of 293T cells; also called VEGFR-3-Fc fusion protein; not shown: Fc fragment of the pIg vector
T1 sequence (looked up): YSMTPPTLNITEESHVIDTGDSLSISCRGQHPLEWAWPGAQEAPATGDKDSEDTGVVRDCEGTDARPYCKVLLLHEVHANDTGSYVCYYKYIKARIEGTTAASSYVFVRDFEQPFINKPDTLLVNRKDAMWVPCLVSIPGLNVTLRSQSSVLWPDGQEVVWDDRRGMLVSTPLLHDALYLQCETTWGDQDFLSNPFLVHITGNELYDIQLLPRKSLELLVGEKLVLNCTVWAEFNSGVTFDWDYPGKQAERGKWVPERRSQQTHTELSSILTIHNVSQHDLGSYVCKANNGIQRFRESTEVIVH


Tests used:
Test in all cases: receptor-Fc IP
[1] = biological target: T2, VEGFR-1-Fc (UniProt P17948 27-338)
T2 construct: domain: first three Ig domains; expressed in Drosophila S2 cells, purified on Protein A sepharose; also called VEGFR-1-Fc fusion protein; not shown: Fc fragment from the Signal-pIgPlus vector
Description: (§1) The binding assay procedure was identical to the immunoprecipitation using pentahistidine antibody described in Example 2, apart from the composition of the immunoprecipitation (IP) mixes. The IP mixes used for the receptor binding analysis were as follows: For VEGFR-1 binding assays, the IP mix was phosphate buffered saline (PBS) containing 1.5% BSA, 0.06% Tween 20, 3 μg/ml heparin and 400 ng/ml VEGFR-1-Fc fusion protein (100 μl of this IP mix was added to 200 μl of sample supernatant); for VEGFR-2 binding assays, the IP mix was 82% conditioned cell supernatant from 293T cells transiently expressing VEGFR-2-Fc fusion protein in mixture with 18% of a PBS solution that contained 5% BSA, 0.2% Tween 20, and 10 μg/ml heparin (250 μl of IP mix was added to 200 μl of sample supernatant); and for VEGFR-3 binding assays, the IP mix was 82% conditioned cell supernatant from 293T cells transiently expressing VEGFR-3-Fc fusion protein, 18% of PBS containing 5% BSA, 0.2% Tween 20, and 10 μg/ml heparin (250 μl of IP mix was added to 200 μl of sample supernatant).

[2] = biological target: T3, VEGFR-2-Fc (UniProt P35968 20-322)
T3 construct: domain: first 3 Ig domains; conditioned supernatant of 293T cells; also called VEGFR-2-Fc fusion protein; not shown: Fc fragment of the pIg vector
Description: as §1

[3] = biological target: T1, VEGFR-3-Fc
Description: as §1

T3 sequence (P35968 20-322): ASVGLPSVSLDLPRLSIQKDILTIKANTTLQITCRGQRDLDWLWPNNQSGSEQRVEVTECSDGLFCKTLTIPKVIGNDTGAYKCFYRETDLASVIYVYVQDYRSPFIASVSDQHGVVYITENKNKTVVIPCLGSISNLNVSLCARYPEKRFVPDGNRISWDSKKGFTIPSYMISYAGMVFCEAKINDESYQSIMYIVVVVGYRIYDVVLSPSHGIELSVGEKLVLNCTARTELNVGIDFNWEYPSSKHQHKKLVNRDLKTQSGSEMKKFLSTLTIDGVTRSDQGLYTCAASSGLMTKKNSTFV
T2 sequence (P17948 27-338): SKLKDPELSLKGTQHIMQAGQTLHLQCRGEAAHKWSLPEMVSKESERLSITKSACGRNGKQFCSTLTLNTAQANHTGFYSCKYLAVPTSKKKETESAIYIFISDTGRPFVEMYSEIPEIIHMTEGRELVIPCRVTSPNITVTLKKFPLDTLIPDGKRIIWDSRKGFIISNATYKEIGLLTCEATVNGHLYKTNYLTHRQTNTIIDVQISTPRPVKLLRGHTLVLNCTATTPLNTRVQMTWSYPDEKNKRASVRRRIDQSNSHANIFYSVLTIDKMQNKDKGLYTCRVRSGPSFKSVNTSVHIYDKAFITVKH

Binder	binding result [1]	binding result [2]	binding result [3]
83-1 (ligand) AHYNTEILKFMDVYQRSYCHPIETLVDIFQEYPDEIEYIFKPPCVSVYRCGGCCNDEGLECVPTEESNITMQIMRIKPHQGQHIGEMSFLQHNKCECRPKKD	binds	binds	no binding
83-5 (ligand) AHYNTEILKFMDVYQRSYCHPIETLVDIFQEYPDEIEYIFKPPCVSVYRCGGCCNDEGLECVPTEESNITMQIMRIKPHQGQHIGEMSFANHTSCRCMSKLD	binds	binds	no binding
21-9 (ligand) AHYNTEILKSIDNEWRKTQCMPREVCIDVGKEYPDEIEYIFKPSCVPLMRCGGCCNDEGLECVPTEESNITMQIMRITVPLSQGPKPVTISFLQHNKCECRPKKD	no binding	no binding	no binding
33-9 (ligand) GQNHHEVVKSIDNEWRKTQCMPIETLVDIFQEYPDEIEYIFKPPCVSVYRCGGCCNDEGLECVPTEESNITMQIMRITVPLSQGPKPVTISFLQHNKCECRPKKD	no binding	binds	no binding
41-3 (ligand) AHYNTEILKFMDVYQRSYCHPREVCIDVGKEYPDEIEYIFKPSCVPLMRCGGCCNSEGLQCVPTEESNITMQIMRIKPHQGQHIGEMSFLQHNKCECRPKKD	no binding	no binding	no binding
43-1 (ligand) AHYNTEILKFMDVYQRSYCHPREVCIDVGKEYPDEIEYIFKPPCVSVYRCGGCCNDEGLECVPTEESNITMQIMRIKPHQGQHIGEMSFLQHNKCECRPKKD	binds	no binding	no binding
81-1 (ligand) AHYNTEILKFMDVYQRSYCHPIETLVDIFQEYPDEIEYIFKPSCVPLMRCGGCCNDEGLECVPTEESNITMQIMRIKPHQGQHIGEMSFLQHNKCECRPKKD	binds	binds	no binding
61-1 (ligand) GQNHHEVVKFMDVYQRSYCHPREVCIDVGKEYPDEIEYIFKPSCVPLMRCGGCCNDEGLECVPTEESNITMQIMRIKPHQGQHIGEMSFLQHNKCECRPKKD	binds	no binding	no binding
81-3 (ligand) AHYNTEILKFMDVYQRSYCHPIETLVDIFQEYPDEIEYIFKPSCVPLMRCGGCCNSEGLQCVPTEESNITMQIMRIKPHQGQHIGEMSFLQHNKCECRPKKD	binds	binds	no binding
61-3 (ligand) GQNHHEVVKFMDVYQRSYCHPREVCIDVGKEYPDEIEYIFKPSCVPLMRCGGCCNSEGLQCVPTEESNITMQIMRIKPHQGQHIGEMSFLQHNKCECRPKKD	binds	no binding	no binding
41-1 (ligand) AHYNTEILKFMDVYQRSYCHPREVCIDVGKEYPDEIEYIFKPSCVPLMRCGGCCNDEGLECVPTEESNITMQIMRIKPHQGQHIGEMSFLQHNKCECRPKKD	binds	no binding	no binding
83-3 (ligand) AHYNTEILKFMDVYQRSYCHPIETLVDIFQEYPDEIEYIFKPPCVSVYRCGGCCNSEGLQCVPTEESNITMQIMRIKPHQGQHIGEMSFLQHNKCECRPKKD	binds	binds	no binding

Results, then the binder that gave them:

binding result [1]	binding result [2]	binding result [3]	Binder
no binding	no binding	no binding	74-9 (ligand) GQNHHEVVKSIDNEWRKTQCMPREVCIDVGKEFGVATNTFFKPSCVPLMRCGGCCNDEGLECVPTEESNITMQIMRITVPLSQGPKPVTISFLQHNKCECRPKKD
no binding	no binding	no binding	73-13 (ligand) GQNHHEVVKSIDNEWRKTQCMPREVCIDVGKEYPDEIEYIFKPPCVSVYRCGGCCNDEGLECVPTEESNITMQIMRITVPLSQGPKPVTISFANHTSCRCMSKLD
no binding	no binding	no binding	72-11 (ligand) GQNHHEVVKSIDNEWRKTQCMPREVCIDVGKEFGVATNTFFKPPCVSVYRCGGCCNSEGLQCVPTEESNITMQIMRITVPLSQGPKPVTISFLQHNKCECRPKKD
no binding	no binding	no binding	73-11 (ligand) GQNHHEVVKSIDNEWRKTQCMPREVCIDVGKEYPDEIEYIFKPPCVSVYRCGGCCNSEGLQCVPTEESNITMQIMRITVPLSQGPKPVTISFLQHNKCECRPKKD
no binding	no binding	no binding	23-9 (ligand) AHYNTEILKSIDNEWRKTQCMPREVCIDVGKEYPDEIEYIFKPPCVSVYRCGGCCNDEGLECVPTEESNITMQIMRITVPLSQGPKPVTISFLQHNKCECRPKKD
no binding	no binding	no binding	44-1 (ligand) AHYNTEILKFMDVYQRSYCHPREVCIDVGKEFGVATNTFFKPSCVPLMRCGGCCNDEGLECVPTEESNITMQIMRIKPHQGQHIGEMSFLQHNKCECRPKKD
no binding	no binding	no binding	44-3 (ligand) AHYNTEILKFMDVYQRSYCHPREVCIDVGKEFGVATNTFFKPSCVPLMRCGGCCNSEGLQCVPTEESNITMQIMRIKPHQGQHIGEMSFLQHNKCECRPKKD
no binding	no binding	no binding	41-5 (ligand) AHYNTEILKFMDVYQRSYCHPREVCIDVGKEYPDEIEYIFKPSCVPLMRCGGCCNDEGLECVPTEESNITMQIMRIKPHQGQHIGEMSFANHTSCRCMSKLD
no binding	no binding	no binding	43-7 (ligand) AHYNTEILKFMDVYQRSYCHPREVCIDVGKEYPDEIEYIFKPPCVSVYRCGGCCNSEGLQCVPTEESNITMQIMRIKPHQGQHIGEMSFANHTSCRCMSKLD
no binding	no binding	no binding	43-3 (ligand) AHYNTEILKFMDVYQRSYCHPREVCIDVGKEYPDEIEYIFKPPCVSVYRCGGCCNSEGLQCVPTEESNITMQIMRIKPHQGQHIGEMSFLQHNKCECRPKKD
no binding	no binding	no binding	42-3 (ligand) AHYNTEILKFMDVYQRSYCHPREVCIDVGKEFGVATNTFFKPPCVSVYRCGGCCNSEGLQCVPTEESNITMQIMRIKPHQGQHIGEMSFLQHNKCECRPKKD
no binding	binds	no binding	63-3 (ligand) GQNHHEVVKFMDVYQRSYCHPREVCIDVGKEYPDEIEYIFKPPCVSVYRCGGCCNSEGLQCVPTEESNITMQIMRIKPHQGQHIGEMSFLQHNKCECRPKKD

From US20080058263A1 (published 2008)
